Test results: paper doi:10.1101/2025.02.24.640013, “Exploration of the influence of environmental changes on the conformational and amyloidogenic landscapes of the zinc finger protein DPF3a by combining biophysical and molecular dynamics approaches” (bioRxiv, 2025)

Molecular target: the molecule itself
Assay: negative-stain TEM + far-UV CD + autofluorescence of amyloid fibril formation; tag-free DPF3a alone, ~4.5 uM (0.18 mg/mL), incubated at ~25 °C for seven days in 50 mM Tris-HCl pH 8, 150 mM NaCl (reference); also at pH 12 in 150 mM NaCl and at pH 8 in 300 and 500 mM NaCl, where fibrils formed later, shorter and in lower number

B1: double PHD fingers 3 (DPF3) protein, isoform DPF3a, full-length (natural protein, human, UniProt Q92784-2 1-357, looked up)
chain: MATVIHNPLKALGDQFYKEAIEHCRSYNSRLCAERSVRLPFLDSQTGVAQNNCYIWMEKRHRGPGLAPGQLYTYPARCWRKKRRLHPPEDPKLRLLEIKPEVELPLKKDGFTSESTTLEALLRGEGVEKKVDAREEESIQEIQRVLENDENVEEGNEEEDLEEDIPKRKNRTRGRARGSAGGRRRHDAASQEDHDKPYVCDICGKRYKNRPGLSYHYAHTHLASEEGDEAQDQETRSPPNHRNENHRPQKGPDGTVIPNNYCDFCLGGSNMNKKSGRPEELVSCADCGRSAHLGGEGRKEKEAAAAARTTEDLFGSTSESDTSTFHGFDEDDLEEPRSCRGRRSGRGSPTADKKGSC
notes: Human DPF3, isoform DPF3a, full length; molecular mass 40244 Da; Metalloprotein with a C2H2 zinc finger; also called full-length DPF3a; source: E. coli BL21 Rosetta (DE3), purified (GSTrap FF, on-column TEV cleavage of the GST tag); not shown: GST, N-terminal, cleaved
binding result: binds
